Target: Escherichia coli RecA (Escherichia coli) (UniProt P0A7G6)
Sequence (P0A7G6 whole entry): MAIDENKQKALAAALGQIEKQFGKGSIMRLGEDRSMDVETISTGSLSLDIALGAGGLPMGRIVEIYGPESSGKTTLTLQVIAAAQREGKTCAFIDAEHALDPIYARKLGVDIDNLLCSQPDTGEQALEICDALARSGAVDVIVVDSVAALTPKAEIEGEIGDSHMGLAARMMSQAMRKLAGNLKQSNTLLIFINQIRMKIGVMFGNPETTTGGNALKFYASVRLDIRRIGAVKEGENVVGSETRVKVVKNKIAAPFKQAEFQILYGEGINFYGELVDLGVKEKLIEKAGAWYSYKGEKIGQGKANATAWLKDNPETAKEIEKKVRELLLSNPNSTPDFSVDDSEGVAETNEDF

activation of RecAEco (5 uM) dATP hydrolysis on (dT)21 by 0.3 uM DprABsu, against RecAEco alone: 7 to 8 fold
B1: Bacillus subtilis DprA (natural protein)
chain: MDQAAVCLTICRINQLLSPSLLLKWWKADPSMSLTSPVLQTVTRDQIKAAALKNEIEQFYPKLPRVLAAYREQGINTIPISSKQYPFWLKSIYDPPAVLFAKGDMTLLSKGRKIGIVGTRNPTAYGKQVVNHLTKEICRKGWVIVSGLASGIDGMSHAASIKAKGRTIGVIAGGFQHIYPRENLQLADHMAKHHILLSEHPPETKPQKWHFPMRNRIISGLSEGVIVVQGKEKSGSLITAYQALEQGREVFAVPGSLFDPYAGGPIKLIQQGAKAIWSAEDIFEELPERNVQYTEPF
